# T1: fibrinogen (Homo sapiens, UniProt P02671+P02675+P02679)
# T1 sequence (P02671 20-644 isoform P02671-2 limits assumed): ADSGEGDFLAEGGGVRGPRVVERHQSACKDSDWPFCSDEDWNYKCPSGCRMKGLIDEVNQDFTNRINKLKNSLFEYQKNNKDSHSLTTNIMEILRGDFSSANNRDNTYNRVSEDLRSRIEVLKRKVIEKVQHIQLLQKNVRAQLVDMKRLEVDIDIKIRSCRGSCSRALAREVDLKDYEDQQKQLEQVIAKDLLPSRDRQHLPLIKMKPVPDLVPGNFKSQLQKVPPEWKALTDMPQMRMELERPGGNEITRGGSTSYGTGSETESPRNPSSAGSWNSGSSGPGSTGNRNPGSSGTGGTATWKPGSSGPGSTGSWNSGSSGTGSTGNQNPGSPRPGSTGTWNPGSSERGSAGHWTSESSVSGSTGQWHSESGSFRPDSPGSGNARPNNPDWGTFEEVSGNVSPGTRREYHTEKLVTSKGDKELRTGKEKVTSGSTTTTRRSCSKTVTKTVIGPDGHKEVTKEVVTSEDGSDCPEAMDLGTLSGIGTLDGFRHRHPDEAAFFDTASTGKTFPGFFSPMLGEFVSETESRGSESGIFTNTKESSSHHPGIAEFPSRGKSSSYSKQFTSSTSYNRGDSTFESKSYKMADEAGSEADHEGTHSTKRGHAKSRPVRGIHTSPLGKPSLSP
# T1 sequence (P02675 31-491): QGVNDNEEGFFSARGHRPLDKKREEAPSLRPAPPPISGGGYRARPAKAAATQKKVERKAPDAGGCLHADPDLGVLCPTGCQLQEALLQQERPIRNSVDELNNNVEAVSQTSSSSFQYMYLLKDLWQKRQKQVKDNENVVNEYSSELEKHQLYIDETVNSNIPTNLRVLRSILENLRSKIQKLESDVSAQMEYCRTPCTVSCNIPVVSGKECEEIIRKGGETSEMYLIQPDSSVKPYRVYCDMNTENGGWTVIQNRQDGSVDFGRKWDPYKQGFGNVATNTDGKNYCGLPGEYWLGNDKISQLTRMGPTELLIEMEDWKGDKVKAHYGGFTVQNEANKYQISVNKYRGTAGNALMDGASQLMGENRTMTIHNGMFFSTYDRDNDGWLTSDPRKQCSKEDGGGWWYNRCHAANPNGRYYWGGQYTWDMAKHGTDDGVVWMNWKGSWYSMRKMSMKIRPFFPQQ
# T1 sequence (P02679 27-453): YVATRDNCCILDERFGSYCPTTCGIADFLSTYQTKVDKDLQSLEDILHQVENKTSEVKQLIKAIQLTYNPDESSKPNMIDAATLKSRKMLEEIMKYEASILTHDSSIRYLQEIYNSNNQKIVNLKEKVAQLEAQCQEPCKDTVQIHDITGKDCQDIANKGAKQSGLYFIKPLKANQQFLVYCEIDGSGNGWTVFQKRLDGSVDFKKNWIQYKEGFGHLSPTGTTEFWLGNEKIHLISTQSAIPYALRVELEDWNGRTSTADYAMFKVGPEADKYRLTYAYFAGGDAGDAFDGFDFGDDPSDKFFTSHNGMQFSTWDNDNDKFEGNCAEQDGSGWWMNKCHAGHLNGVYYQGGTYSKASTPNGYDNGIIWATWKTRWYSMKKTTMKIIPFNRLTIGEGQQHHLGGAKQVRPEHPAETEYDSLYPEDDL
# B1: Protein H (IgG-binding surface protein of S. pyogenes AP1), recombinant from E. coli (other)
# chain: EGAKIDWQEEYKKLDEDNAKLVEVVETTSLENEKLKSENEENKKNLDKLSKENQGKLEKLELDYLKKLDHEHKEHQKEQQEQEERQKNQEQLERKYQREVEKRYQEQLQKQQQLETEKQISEASRKSLSRDLEASRAAKKDLEAEHQKLEAEHQKLKEDKQISDASRQGLSRDLEASRAAKKELEANHQKLEAEHQKLKEDKQISDASRQGLSRDLEASRAAKKELEANHQKLEAEAKALKEQLAKQAEELAKLRAGKASDSQTPDTKPGNKAVPGKGQAPQAGTKPNQNKAPMKETKRQLPST
# notes: also called purified protein H
# B2: protein H: IgG-binding surface protein of AP1 bacteria, closely related to M1 protein, does not bind fibrinogen (protein)
# chain: B1 chain
# Legend:
# [1] = tested on: PMNs in human blood; assay: HBP release in human blood by streptococcal and other PMN-activating components; assay type: cell-based
# Experimental: HBP release. 100 μl human blood were diluted in PBS to a final volume of 1.0 ml and incubated with various PMNs-activating components for 30 min at 37° C. Cells were centrifuged (300×g for 15 min) and the supernatant was analyzed by sandwich ELISA. In order to quantify the total amount of HBP in blood, cells were lysed with 0.02% (v/v) Triton X-100, and pelleted as described above.
# [2] = target: T1, fibrinogen; assay: Fibrinogen binding on Western blot; conditions: literature statement, demonstrated in the applicant's blot probed with fibrinogen 2 μg/ml
# Experimental: SDS-polyacrylamide gel electrophoresis, Western blotting, and immunoprinting. Proteins were separated by 12.5% (w/v) polyacrylamide gel electrophoresis in the presence of 1% (w/v) SDS (Laemmli, 1970, Nature, 227, 680-685). Molecular weight markers were from Sigma Chemical Co. (St. Louis, Mo.). The resolved proteins were visualized by the silver stain technique. Proteins were also transferred onto nitrocellulose membranes for 30 min at 100 mA (Khyse-Andersen, 1984, J. Biochem. Biophys. Methods, 10, 203-209). The membranes were blocked with PBS containing 5% (w/v) dry milk powder and 0.05% (w/v) Tween-20, pH 7.4. Immunoprinting of the transferred proteins was done according to Towbin et al. (Towbin et al., 1979, Proc. Natl. Acad. Sci. USA, 76, 4350-4354). Polyclonal antibodies against M1 protein, diluted 1:50000 in the blocking buffer, was used. Bound antibodies were detected using a peroxidase-conjugated secondary antibodies against rabbit IgG (dilution 1:3000) followed by a chemiluminescence detection method. Alternatively, membranes were blocked, incubated with fibrinogen (2 μg/ml) followed by immunodetection with antibodies to fibrinogen (1:1000) and peroxidase-conjugated secondary antibodies against rabbit immunoglobulin (1:3000 diluted).
# [3] = tested on: mice of the C57BL/6 strain; conditions: for lung damage after injection of the protein alone, scanning electron microscopy / lung lesions after injection of the protein alone, light microscopy: i.v., M1 protein 15 μg/animal, 30 min
# [4] = target: T2, Fibrinogen (human, UniProt P02671 20-630; P02675 31-491; P02679 27-453); assay: ligand blot: SDS-PAGE, transfer to nitrocellulose, probed with fibrinogen, immunodetection of bound fibrinogen
# T2 construct: also called human fibrinogen; purified fibrinogen
Molecule,"HBP stored in PMNs mobilized ([1]; M1 protein final concentration 1 μg/ml, human whole blood, 30 min 37° C., FIG. 1A)","M1 protein concentration of maximal release of HBP from PMNs ([1]; blood diluted 1/10, FIG. 3B) [µg/mL]",binding of fibrinogen [2],"ratio of lung area containing protein aggregates versus total lung area ([3]; M1 protein alone i.v., six lung sections per animal, electron microscopy) [%]","lung damage after injection of the protein alone, scanning electron microscopy [3]","lung lesions after injection of the protein alone, light microscopy [3]","breathing of mice ([3]; thirty minutes after i.v. M1 protein 15 μg/animal, alone or plus peptide 400 μg/animal)",binding result [4],"release of HBP ([1]; added to human blood, 30 min 37° C., HBP in supernatant by ELISA, FIG. 1)"
M1 protein: recombinant M1 protein of Streptococcus pyogenes expressed in E. coli (SEQ ID NO: 1),about 63%,1,binds fibrinogen with high affinity,90±2,severe leakage of erythrocytes,severe hemorrhage and tissue destruction,clearly affected,,
B1,,,,,,,,no binding,
B2,,,shows no interaction with fibrinogen,,did neither cause serious bleeding,no hemorrhage,,,Only minute amounts

# Source: patent US20070172471A1, “Method for identifying an anti- streptococcal agent and its use for treating streptococcal infections” (Hansa Medical AB, priority 2003, published 2007)
